Kd data for 40 sequences are collected here from the Immune Epitope Database (IEDB).

In one experiment the target is HLA-A*69:01. The experiment in a line: IEDB peptide-MHC binding, purified MHC/direct/fluorescence; filed as Kd, often an IC50 or EC50 that approximates it; ≥ and ≤ were set here for values at or beyond the usual limits of such assays.
Experiment [1] addresses HLA-A*01:01. Put plainly: IEDB peptide-MHC binding, purified MHC/competitive/radioactivity; filed as Kd, often an IC50 or EC50 that approximates it; ≥ and ≤ were set here for values at or beyond the usual limits of such assays.
A further experiment has as its target HLA-A*26:01. The experiment is described as above.
A further experiment addresses HLA-A*29:02. The description is as above.
A further experiment addresses HLA-A*30:01. The description is as above.
Another experiment deals with HLA-A*30:02. Described as above.
Another experiment concerns the target HLA-A*32:01. Described as above.
Another experiment concerns the target HLA-B*08:01. The experiment is described as above.
Experiment [2] has as its target HLA-A*11:01. The experiment in a line: IEDB peptide-MHC binding, purified MHC/direct/fluorescence; filed as Kd, often an IC50 or EC50 that approximates it; ≥ and ≤ were set here for values at or beyond the usual limits of such assays.
Another experiment addresses HLA-B*58:01. Described as above. The following applies: source organism: SARS-CoV1.
Experiment [3] concerns the target HLA-A*02:01. Put plainly: IEDB peptide-MHC binding, purified MHC/competitive/fluorescence; filed as Kd, often an IC50 or EC50 that approximates it; ≥ and ≤ were set here for values at or beyond the usual limits of such assays.
The target of the next experiment is HLA-A*02:03. The experiment in a line: IEDB peptide-MHC binding, purified MHC/competitive/radioactivity; filed as Kd, often an IC50 or EC50 that approximates it; ≥ and ≤ were set here for values at or beyond the usual limits of such assays. Conditions: source organism: Dengue virus 4 Philippines/H241/1956.
In experiment [4] the target is HLA-A*02:01. The experiment in a line: IEDB peptide-MHC binding, purified MHC/direct/fluorescence; filed as Kd, often an IC50 or EC50 that approximates it; ≥ and ≤ were set here for values at or beyond the usual limits of such assays.
Experiment [5] addresses HLA-A*03:01. The experiment in a line: IEDB peptide-MHC binding, purified MHC/competitive/radioactivity; filed as Kd, often an IC50 or EC50 that approximates it; ≥ and ≤ were set here for values at or beyond the usual limits of such assays. The following applies: source organism: Dengue virus 4 Philippines/H241/1956.
Experiment [6] addresses HLA-A*11:01. The description is as above. Conditions: source organism: Dengue virus 4 Philippines/H241/1956.
Experiment [7] has as its target HLA-A*01:01. Put plainly: IEDB peptide-MHC binding, purified MHC/direct/fluorescence; filed as Kd, often an IC50 or EC50 that approximates it; ≥ and ≤ were set here for values at or beyond the usual limits of such assays. The following applies: source organism: Homo sapiens.
For experiment [8], the target named is HLA-A*03:01. Described as above. The following applies: source organism: Homo sapiens.
Another experiment addresses HLA-B*27:05. The experiment is described as above. Conditions: source organism: Homo sapiens.
Another experiment deals with HLA-A*23:01. Put plainly: IEDB peptide-MHC binding, purified MHC/competitive/radioactivity; filed as Kd, often an IC50 or EC50 that approximates it; ≥ and ≤ were set here for values at or beyond the usual limits of such assays.
Another experiment addresses HLA-A*24:02. Described as above.
The mark [9] stands for this setting: source organism: Mycobacterium tuberculosis.
Setting [10] is: source organism: Mammarenavirus machupoense.
The mark [11] stands for this setting: source organism: Vaccinia virus WR.
Setting [12] is: source organism: Dengue virus 4 Philippines/H241/1956.
The mark [13] stands for this setting: source organism: Vaccinia virus Copenhagen.
[14] abbreviates: source organism: Dengue virus 2 Jamaica/1409/1983.
The mark [15] stands for this setting: source organism: Mammarenavirus guanaritoense.
Setting [16] is: source organism: Influenza A virus H3N2.
Where [17] appears, read: source organism: Dengue virus 1 Brazil/97-11/1997.
Setting [18] is: source organism: Pseudomonas aeruginosa.
Where [19] appears, read: source organism: Giardia lamblia ATCC 50803.
Where [20] appears, read: source organism: Mammarenavirus lassaense.
[21] abbreviates: source organism: SARS coronavirus Tor2.

As for LLHEVGITV, the Kd (usually the equilibrium constant for the complex coming apart) with HLA-A*69:01 (setting [9]) stood at 1920 nM.

In the case of CMLNNSFYY, the Kd in the experiment with HLA-A*01:01 [1] (setting [10]) is 1780 nM; with HLA-A*26:01 (setting [10]), 958 nM; with HLA-A*29:02 (setting [10]), 1.33 nM; with HLA-A*30:01 (setting [10]), 556 nM; in the experiment with HLA-A*30:02 (setting [10]), 5.46 nM; with HLA-A*32:01 (setting [10]) it was 10500 nM.

Regarding ELINKFVEL, the Kd with HLA-B*08:01 (setting [11]) came to 1040 nM. For SIYRMSYQF, in the experiment with HLA-A*32:01 (setting [11]), the Kd worked out at 0.798 nM. On to LTQKVVIFIL, for which the Kd with HLA-B*08:01 (source organism: Dengue virus 3 Martinique/1243/1999) was 3100 nM. On to VISNLVLSY, for which, in the experiment with HLA-A*32:01 (setting [11]), the dissociation constant Kd worked out at 808 nM. On to IDNVHTWTEQ, for which, in the experiment with HLA-A*32:01 (setting [12]), the dissociation constant Kd turned out to be 9850 nM.

Take SQMERFNCS: in the experiment with HLA-B*08:01 (setting [13]), the Kd was determined as 38.8 nM. ALNHLVLSL: the dissociation constant (Kd) in the experiment with HLA-A*32:01 (setting [11]) came out at 41.4 nM.

As to KLGNLLLLI, in the experiment with HLA-A*32:01 (setting [11]), the Kd is 0.716 nM. For the sequence RPKIKTNDI, in the experiment with HLA-B*08:01 (setting [11]), the Kd stood at 2.11 nM. Still for that read-out and setting: under LMKERISSE stands 81.9 nM.

In the case of KTTFKPNTW, the Kd with HLA-A*11:01 [2] (source organism: SARS-CoV1) was no less than 32.6 µM; in the experiment with HLA-B*58:01, 157 nM. As for RLPNLFHIL, the dissociation constant Kd with HLA-B*08:01 (setting [11]) is 68.5 nM. For the sequence RKKARNTPF, the dissociation constant Kd with HLA-B*08:01 (source organism: Dengue virus 2 Peru/IQT2913/1996) is 82.7 nM. Take FKGKTVWFVP: the Kd in the experiment with HLA-A*32:01 (setting [14]) is no less than 69900 nM. In the experiment with HLA-A*02:01 [3] (source organism: Variola virus), EIQLKIDKL had a Kd of 3590 nM.

TTDFTRLRY: the Kd with HLA-A*01:01 [1] (setting [15]) was 7.53 nM; with HLA-A*26:01 (setting [15]), 2410 nM; with HLA-A*29:02 (setting [15]) it was 59.5 nM; with HLA-A*30:01 (setting [15]), 1930 nM; in the experiment with HLA-A*30:02 (setting [15]) it was 551 nM; with HLA-A*32:01 (setting [15]), 11500 nM. On to RVMVSPLAV, for which the Kd with HLA-A*02:01 [3] (setting [16]) amounted to 0.9 nM.

In the case of LAGAGLAFSL, the Kd in the experiment with HLA-B*08:01 (setting [17]) stood at 2620 nM. Take EDMLKVWNRV: the Kd with HLA-A*32:01 (setting [12]) is 19600 nM. For the sequence SIKSKSRRL, in the experiment with HLA-B*08:01 (setting [11]), the Kd was 29.8 nM. In the case of ALNELPESL, the Kd amounted to 94.1 nM with HLA-A*02:03 and 1400 nM in the experiment with HLA-A*32:01 (setting [12]).

On to IIIPFIAYFV, for which the Kd with HLA-A*02:01 [3] (source organism: Variola virus) stood at 50.5 nM. Turning to FLMGFNRDV, in the experiment with HLA-A*69:01 (setting [9]), the Kd is 1760 nM. Turning to DMYDQQLSV, the Kd was found to be 262 nM with HLA-A*02:01 [4] (setting [18]) and 32 nM with HLA-A*69:01 (setting [18]). As to SNRAIFVPI, the dissociation constant Kd in the experiment with HLA-B*08:01 (setting [11]) stood at 127 nM. Regarding FLIGVYQQY, the Kd in the experiment with HLA-A*02:01 [4] (setting [19]) and with HLA-A*69:01 (setting [19]) was no less than 20000 nM throughout. Consider FTFKRTSGSSV, for which the Kd in the experiment with HLA-A*02:01 [3] (setting [16]) turned out to be 930 nM. For the sequence SMTKKFKTI, in the experiment with HLA-B*08:01 (setting [11]), the dissociation constant (Kd) was determined as 151 nM. Take MTLWYMWQVK: the values for the Kd with HLA-A*03:01 [5], with HLA-A*11:01 [6] and with HLA-A*32:01 (setting [12]) were 7.82 nM, 6.51 nM and 927 nM, respectively. On to IGMNSRSTSL, for which the equilibrium dissociation constant (Kd) with HLA-B*08:01 (setting [14]) came out at 107 nM. GRIDKPILK: the Kd in the experiment with HLA-A*01:01 [7] was no less than 53.5 µM; with HLA-A*03:01 [8] it was 13.5 µM; with HLA-A*11:01 [2] (source organism: Homo sapiens) it was 8.15 µM; in the experiment with HLA-B*27:05, 790 nM. RIIMLNFSI: the Kd with HLA-A*32:01 (setting [13]) was no less than 77800 nM. As to ELKEKSVKF, in the experiment with HLA-B*08:01 (setting [11]), the Kd was found to be 3.19 nM.

For the sequence TPMMRHTIE, the Kd with HLA-B*08:01 (setting [17]) amounted to 7.23 nM. Consider RREEEEAGVL, for which, in the experiment with HLA-B*08:01 (setting [14]), the Kd was determined as 2160 nM. For MTSERTLAV, in the experiment with HLA-A*02:01 [3] (source organism: Yersinia pestis Nepal516), the Kd was 57.7 nM. On to VDINLIPLI, for which the Kd with HLA-A*01:01 [1] (setting [20]) is 19500 nM; in the experiment with HLA-A*23:01 (setting [20]) it was 1610 nM; in the experiment with HLA-A*24:02 (setting [20]) it was 2950 nM; with HLA-A*26:01 (setting [20]), no less than 77900 nM; with HLA-A*29:02 (setting [20]) it was no less than 78900 nM; with HLA-A*30:02 (setting [20]) it was no less than 76900 nM. As to HHANEYRQY, the Kd in the experiment with HLA-A*01:01 [1] (setting [21]) is no less than 78100 nM; with HLA-A*23:01 (setting [21]) it was no less than 77800 nM; with HLA-A*24:02 (setting [21]), no less than 33400 nM; with HLA-A*26:01 (setting [21]), no less than 102000 nM; with HLA-A*29:02 (setting [21]) it was 12700 nM; with HLA-A*30:02 (setting [21]), 6960 nM.
